The numbers were not newly measured in publication PMC8174103, which cites them from elsewhere.

This data set addresses EGFR (Homo sapiens) (UniProt P00533).

The Kd is a measure of binding affinity in units of concentration. For EGF (from UniProt P01133), the Kd was 2 nM.
